Measured values as given in patent US20050048528A1 (WALTER AND ELIZA HALL INSTITUTE OF MEDICAL RESEARCH, published 2005).

Legend:
[1] = molecular target: CtIP (residues 45-897), human, from pCMV-HA-ns311 (human, UniProt Q99708 45-897); assay: co-immunoprecipitation (anti-Flag) / anti-CtIP western blot, transfected 293T cells
Description: (§1) FIG. 6: Interaction between LM04 and CtIP requires a single LIM domain and appears to be specific for the LMO subclass. A, CtIP associates with LMO4 and LMO2. […] Lysates were prepared and proteins immunoprecipitated with the indicated specific antisera. F, Flag; C, control isotype-matched monoclonal antibody. Immunoblotting was performed with the antibodies indicated under each panel. Lane 4 depicts the reciprocal immunoprecipitation experiment performed using an anti-CtIP antibody. The 25 kD bands in lane 4 represent light chain. Western blot analysis of lysates confirmed expression of CtIP and LMO proteins. Note the different size markers indicated for LMO proteins detected by western analysis using anti-Flag antibody (lane 4). B, The first LIM domain but not the second LIM domain of LMO4 interacts with CtIP. […] Cell extracts were immunoprecipitated with anti-Flag (F) antibody, then immunoblotted with anti-CtIP antisera. Western blot analysis of lysates confirmed expression of CtIP and LIM polypeptides (lower panels). […] Cell extracts were immunoprecipitated with anti-Flag (F) antibody, then immunoblotted with anti-CtIP antibody. Western blot analysis of lysates confirmed expression of CtIP and LIM proteins (lower panels). D, Interaction between endogenous LMO4 and CtIP proteins in HBL100 epithelial cells. […]

[2] = molecular target: BRCA1 activation domain (amino acids 1293-1863) fused to the Gal4 DNA-binding domain (human, UniProt P04386 1-147; P38398 1293-1863); assay: cell-based or functional assay
[3] = molecular target: T1, HA-CtIP (59-320) (human, UniProt Q99708 59-320); assay: co-immunoprecipitation (anti-Flag) / anti-HA western blot, transfected 293T cells
T1 construct: range 59-320
T1 sequence (Q99708 59-320 limits assumed): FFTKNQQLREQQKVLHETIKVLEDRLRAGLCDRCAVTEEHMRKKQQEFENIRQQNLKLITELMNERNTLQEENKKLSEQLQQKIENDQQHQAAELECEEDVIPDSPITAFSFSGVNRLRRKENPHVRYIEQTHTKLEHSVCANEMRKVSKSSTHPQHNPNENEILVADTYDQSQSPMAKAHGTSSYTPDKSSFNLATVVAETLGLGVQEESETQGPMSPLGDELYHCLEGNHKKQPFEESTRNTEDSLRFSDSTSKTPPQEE
Description: (§2) FIG. 7: Two regions within CtIP specifically interact with LMO4. A, Schematic representation of wild-type CtIP and deletion mutant constructs that were tested for interaction with LMO4 in mammalian cells. The region that associates with BRCA1 and two putative leucine zipper (LZ) domains are indicated. A summary of each mutant's ability to interact with LMO4 is shown. […] Lysates were prepared and proteins immunoprecipitated using anti-Flag monoclonal antibody (F) or control isotype-matched (C) monoclonal antibody. After SDS-PAGE electrophoresis, western blotting was performed using α-HA antibody, specific for CtIP protein. Western blot analysis confirmed expression of Flag-LMO4 and CtIP mutant proteins (lower panels).
(§3) Cell extracts (0.5 ml) were prepared in whole cell lysis buffer (150 mM NaCl, 5 mM EDTA, 50 mM Tris pH7.5, 1% Nonidet P-40, 1 mM DTT) containing protease inhibitors (1 mM phenylmethylsulfonyl fluoride, 1 μg/ml leupeptin, 1 μg/ml pepstatin, 1 μg/ml aprotinin) and normalised for protein concentration, as determined by Bradford analysis (BioRad). Proteins were immunoprecipitated with either anti-Flag M2 (Sigma) or anti-myc 9E10 and protein G sepharose (Amersham Pharmacia Biotech.), and separated by SDS-PAGE (Novex). […]

[4] = molecular target: HA-CtIP (281-620) (human, UniProt Q99708 281-620); assay: as above
Sequence of HA-CtIP (281-620) (Q99708 281-620 limits assumed): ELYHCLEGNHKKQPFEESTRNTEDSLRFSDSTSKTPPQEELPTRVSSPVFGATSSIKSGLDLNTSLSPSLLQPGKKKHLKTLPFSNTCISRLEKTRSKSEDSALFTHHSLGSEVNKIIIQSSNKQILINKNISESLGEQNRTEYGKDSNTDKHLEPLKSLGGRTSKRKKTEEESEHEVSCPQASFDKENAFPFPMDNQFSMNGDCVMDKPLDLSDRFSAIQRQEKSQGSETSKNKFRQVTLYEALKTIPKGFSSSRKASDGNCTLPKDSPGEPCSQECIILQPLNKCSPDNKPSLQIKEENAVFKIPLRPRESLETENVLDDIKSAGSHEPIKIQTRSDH
Description: as §2, §3

[5] = molecular target: T2, HA-tagged BRCA1 SZ fragment (residues 1528-1863) (human, UniProt P38398 1528-1863, 35S-methionine-labeled in the in vitro binding assay); assay: in vitro binding of 35S-labeled BRCA1-SZ to GST-LMO4 on glutathione sepharose, SDS-PAGE
T2 construct: also called BRCT (SZ) region
T2 sequence (P38398 1528-1863): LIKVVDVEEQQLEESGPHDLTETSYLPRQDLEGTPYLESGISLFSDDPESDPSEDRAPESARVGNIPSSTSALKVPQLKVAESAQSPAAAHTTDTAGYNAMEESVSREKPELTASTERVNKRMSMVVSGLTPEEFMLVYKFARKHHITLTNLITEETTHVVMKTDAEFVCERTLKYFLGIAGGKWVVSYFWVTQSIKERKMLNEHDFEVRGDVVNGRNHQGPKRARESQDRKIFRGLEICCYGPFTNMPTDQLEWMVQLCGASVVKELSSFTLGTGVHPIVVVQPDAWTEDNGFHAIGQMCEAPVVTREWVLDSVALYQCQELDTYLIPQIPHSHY
Description: FIG. 10: The C-terminal BRCT domains of BRCA1 mediate interaction with LMO4. […] Lysates were immunoprecipitated with anti-Flag (F) or control (C) antibody, then western blotted with anti-HA antibody. B, LMO4 and the BRCT domain interact in vitro. […] Bound proteins were analysed by SDS-PAGE. Arrow depicts the BRCA1-SZ protein. C, LMO4 and the BRCT (SZ) region of BRCA1 interact in yeast Hf7c cells. Yeast cells were cotransformed with the indicated expression vectors and plated on media deficient in his, leu and trp. Staining for β-galactosidase activity verified that the His⁺ colonies obtained for LMO4+CtIP and LMO4+BRCA1 (SZ) transformants were also β-Gal⁺. No colonies were obtained for Hf7c cells transformed with BRCA1 (SZ)+lamin, BRCA1 (SZ) alone or LMO4 alone.
Binding assays were carried out with a 10 μl aliquot of […] BRCA1-SZ primed lysate and 100 μl (50% slurry of GST-sepharose beads; Amersham Pharmacia) of GST-LMO4 or GST-only protein in GST interaction buffer (150 mM NaCl, 10 mM Tris pH 8, 0.3% NP-40, 1 mM DTT, 0.25% BSA and 0.5 mM phenylmethylsulfonyl fluoride) for 2 hours at 4° C. The beads were subsequently washed twice in GST interaction buffer containing BSA, followed by two more washes in GST interaction buffer without BSA. Finally, the bound BRCA1 C-terminal polypeptide was eluted by boiling the beads for 5 min in 30 μl loading buffer and analysed by SDS-PAGE.

[6] = molecular target: T3, endogenous CtIP of human HBL100 breast epithelial cells (human, UniProt Q99708 1-897); assay: immunoprecipitation of HBL100 nuclear extracts with anti-LMO4 antisera / anti-CtIP western blot (FIG. 6D)
T3 construct: mature; also called native CtIP
T3 sequence (Q99708 whole entry): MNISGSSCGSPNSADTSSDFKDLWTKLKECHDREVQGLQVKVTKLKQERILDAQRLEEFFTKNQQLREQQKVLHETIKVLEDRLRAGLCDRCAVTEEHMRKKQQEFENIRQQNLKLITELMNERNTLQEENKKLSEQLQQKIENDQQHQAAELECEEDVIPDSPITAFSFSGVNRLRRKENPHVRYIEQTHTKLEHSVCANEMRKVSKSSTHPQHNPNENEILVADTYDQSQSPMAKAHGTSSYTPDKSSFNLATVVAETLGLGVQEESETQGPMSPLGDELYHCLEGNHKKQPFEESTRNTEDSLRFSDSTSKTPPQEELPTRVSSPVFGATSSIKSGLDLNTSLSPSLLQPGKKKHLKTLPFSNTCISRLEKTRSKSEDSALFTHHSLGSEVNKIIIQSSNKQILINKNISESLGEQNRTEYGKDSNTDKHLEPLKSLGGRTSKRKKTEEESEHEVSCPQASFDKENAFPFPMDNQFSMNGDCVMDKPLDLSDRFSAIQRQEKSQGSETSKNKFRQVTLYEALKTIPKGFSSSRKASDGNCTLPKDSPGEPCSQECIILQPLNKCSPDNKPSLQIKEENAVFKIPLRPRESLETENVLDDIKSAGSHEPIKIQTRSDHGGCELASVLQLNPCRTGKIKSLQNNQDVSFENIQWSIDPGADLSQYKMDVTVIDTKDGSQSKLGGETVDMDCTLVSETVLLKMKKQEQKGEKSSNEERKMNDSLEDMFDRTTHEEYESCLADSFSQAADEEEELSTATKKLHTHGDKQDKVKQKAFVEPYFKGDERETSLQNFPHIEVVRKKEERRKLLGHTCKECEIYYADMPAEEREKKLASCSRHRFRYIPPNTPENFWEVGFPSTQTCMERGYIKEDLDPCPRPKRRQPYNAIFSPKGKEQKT
Description: as §1, with “A,” for “FIG. 6: Interaction between LM04 and CtIP requires a single LIM domain and appears to be specific for the LMO subclass. A,”, “cells. Nuclear extracts were immunoprecipitated with pre-immune serum (lane 1) or anti-LMO4 antisera (lane 2), then blotted using anti-CtIP monoclonal antibody.” for “cells.”

[7] = molecular target: T4, endogenous BRCA1 of human HBL100 breast epithelial cells (human, UniProt P38398 1-1863); assay: immunoprecipitation of HBL100 nuclear lysates with rat anti-LMO4 monoclonal / anti-BRCA1 western blot (FIG. 9B)
T4 construct: mature; also called native BRCA1; BRCA1 (220 kD)
T4 sequence (P38398 whole entry): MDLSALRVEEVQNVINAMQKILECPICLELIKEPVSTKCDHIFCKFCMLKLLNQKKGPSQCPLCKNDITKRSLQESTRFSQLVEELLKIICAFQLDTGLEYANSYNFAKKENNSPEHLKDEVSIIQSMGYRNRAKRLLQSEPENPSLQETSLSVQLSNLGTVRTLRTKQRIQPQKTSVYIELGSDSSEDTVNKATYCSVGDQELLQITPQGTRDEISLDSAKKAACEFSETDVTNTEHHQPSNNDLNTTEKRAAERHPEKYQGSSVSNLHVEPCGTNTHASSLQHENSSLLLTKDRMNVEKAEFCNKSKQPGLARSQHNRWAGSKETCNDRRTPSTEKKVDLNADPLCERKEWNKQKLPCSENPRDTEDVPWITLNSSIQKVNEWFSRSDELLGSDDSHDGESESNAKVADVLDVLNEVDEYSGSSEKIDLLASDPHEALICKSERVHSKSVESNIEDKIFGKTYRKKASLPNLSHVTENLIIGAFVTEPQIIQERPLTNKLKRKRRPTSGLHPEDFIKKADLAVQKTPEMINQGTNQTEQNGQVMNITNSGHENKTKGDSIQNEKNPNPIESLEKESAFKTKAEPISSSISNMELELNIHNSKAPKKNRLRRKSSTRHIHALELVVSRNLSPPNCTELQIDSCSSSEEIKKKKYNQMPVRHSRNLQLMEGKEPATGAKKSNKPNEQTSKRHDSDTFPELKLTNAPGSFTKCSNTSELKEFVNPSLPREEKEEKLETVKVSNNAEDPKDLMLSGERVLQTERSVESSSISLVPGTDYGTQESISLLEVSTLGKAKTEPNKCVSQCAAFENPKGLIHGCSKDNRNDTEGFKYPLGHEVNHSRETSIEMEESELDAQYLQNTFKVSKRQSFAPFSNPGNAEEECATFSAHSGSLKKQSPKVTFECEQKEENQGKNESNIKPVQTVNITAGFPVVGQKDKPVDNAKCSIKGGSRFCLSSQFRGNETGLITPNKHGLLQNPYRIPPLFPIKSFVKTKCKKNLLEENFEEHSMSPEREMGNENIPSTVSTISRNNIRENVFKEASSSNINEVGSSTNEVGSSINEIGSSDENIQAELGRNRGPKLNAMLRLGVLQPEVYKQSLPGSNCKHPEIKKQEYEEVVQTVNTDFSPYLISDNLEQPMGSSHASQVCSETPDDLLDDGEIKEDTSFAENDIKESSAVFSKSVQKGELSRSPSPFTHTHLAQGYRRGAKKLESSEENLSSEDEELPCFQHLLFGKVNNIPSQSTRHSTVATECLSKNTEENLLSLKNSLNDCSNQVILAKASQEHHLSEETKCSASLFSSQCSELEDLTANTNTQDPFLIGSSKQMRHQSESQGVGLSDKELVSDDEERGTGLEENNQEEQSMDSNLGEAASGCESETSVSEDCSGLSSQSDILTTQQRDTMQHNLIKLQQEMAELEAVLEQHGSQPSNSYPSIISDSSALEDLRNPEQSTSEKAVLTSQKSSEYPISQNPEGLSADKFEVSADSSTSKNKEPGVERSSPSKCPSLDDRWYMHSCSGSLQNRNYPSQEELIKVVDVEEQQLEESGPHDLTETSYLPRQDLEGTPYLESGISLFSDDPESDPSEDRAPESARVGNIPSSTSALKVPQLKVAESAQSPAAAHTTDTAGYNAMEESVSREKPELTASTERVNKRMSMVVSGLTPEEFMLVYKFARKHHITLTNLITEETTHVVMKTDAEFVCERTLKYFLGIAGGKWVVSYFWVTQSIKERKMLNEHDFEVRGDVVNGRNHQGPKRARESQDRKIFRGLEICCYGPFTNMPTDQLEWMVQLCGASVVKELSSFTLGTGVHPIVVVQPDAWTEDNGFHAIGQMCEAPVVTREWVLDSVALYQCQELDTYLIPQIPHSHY
Excerpt: Nuclear lysates were immunoprecipitated with a rat anti-LMO4 monoclonal (lane 2) or control antibody (lane 3), then immunoblotted with anti-BRCA1 (upper panel) or anti-CtIP (middle panel) monoclonal antibody. The immunoprecipitate was divided between two SDS-polyacrylamide gels, one of which underwent extended electrophoresis for detection of BRCA1 (220 kD) while the other was immunoblotted with anti-CtIP antibody. As a control, immunoprecipitate was also blotted with anti-LMO4 monoclonal antibody (lower panel). Lysate from HBL100 cells was loaded in an adjacent lane to provide a size control for the respective proteins (lane 1), indicated by arrows. C, Interaction between LMO4, CtIP, BRCA1 and Ldb1 in mammalian cells. […] Western blot analysis confirmed high level expression of individual proteins in these transfectants (lane 1).
For detection of endogenous proteins, nuclear extracts from human HBL100 cells were prepared (Watters, D., Khanna, K. K., Beamish, H., Birrell, G., Spring, K., Kedar, P., Gatei, M., Stenzel, D., Hobson, K., Kozlov, S., Zhang, N., Farrell, A., Ramsay, J., Gatti, R., and Lavin, M. (1997) Oncogene 14(16), 1911-21). Proteins were immunoprecipitated with either anti-LMO4 rabbit antisera or a rat anti-LMO4 monoclonal antibody and protein G sepharose, and fractionated by SDS-PAGE. […]

Sequence of CtIP (residues 45-897), human, from pCMV-HA-ns311 (Q99708 45-897 limits assumed): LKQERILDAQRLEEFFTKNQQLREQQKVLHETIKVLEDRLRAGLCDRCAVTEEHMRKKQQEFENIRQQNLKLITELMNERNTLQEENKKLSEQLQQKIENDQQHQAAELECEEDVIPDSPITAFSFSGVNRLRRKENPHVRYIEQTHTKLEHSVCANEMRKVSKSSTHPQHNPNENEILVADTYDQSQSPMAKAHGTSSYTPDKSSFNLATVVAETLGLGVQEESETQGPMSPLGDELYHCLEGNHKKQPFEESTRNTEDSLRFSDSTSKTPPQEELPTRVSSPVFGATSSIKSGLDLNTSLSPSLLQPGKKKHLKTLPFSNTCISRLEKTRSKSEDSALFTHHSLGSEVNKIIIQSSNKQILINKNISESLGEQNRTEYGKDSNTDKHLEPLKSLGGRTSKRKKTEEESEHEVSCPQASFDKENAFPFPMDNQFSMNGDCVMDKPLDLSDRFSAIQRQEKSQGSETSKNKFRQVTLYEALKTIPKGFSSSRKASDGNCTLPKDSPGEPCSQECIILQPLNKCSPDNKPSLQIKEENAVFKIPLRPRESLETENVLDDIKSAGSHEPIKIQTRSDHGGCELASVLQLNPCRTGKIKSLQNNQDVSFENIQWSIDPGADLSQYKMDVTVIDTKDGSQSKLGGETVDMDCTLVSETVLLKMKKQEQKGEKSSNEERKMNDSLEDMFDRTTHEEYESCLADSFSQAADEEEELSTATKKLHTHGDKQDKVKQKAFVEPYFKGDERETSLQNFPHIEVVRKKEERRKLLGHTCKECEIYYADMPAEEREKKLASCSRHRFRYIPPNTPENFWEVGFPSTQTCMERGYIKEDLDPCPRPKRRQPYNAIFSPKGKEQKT

B1: Flag-tagged second LIM domain of LMO4 (residues 79-165) (other, UniProt P61968 79-165, looked up, not shown: small tags and cut ends)
chain: RLFGNSGACSACGQSIPASELVMRAQGNVYHLKCFTCSTCRNRLVPGDRFHYINGSLFCEHDRPTALINGHLNSLQSNPLLPDQKVC
notes: also called LIM2
[1]
  binding result: no binding

B2: Flag-tagged LMO4 (full-length) (other, UniProt P61968 1-165, looked up, not shown: small tags and cut ends)
chain: MVNPGSSSQPPPVTAGSLSWKRCAGCGGKIADRFLLYAMDSYWHSRCLKCSCCQAQLGDIGTSCYTKSGMILCRNDYIRLFGNSGACSACGQSIPASELVMRAQGNVYHLKCFTCSTCRNRLVPGDRFHYINGSLFCEHDRPTALINGHLNSLQSNPLLPDQKVC
notes: mature; also called Flag-LMO4; LM04
[2]
  transcription of the Gal4-CAT reporter gene in 293T cells (CAT ELISA): ~3 fold
[3]
  binding result: no binding
[4]
  binding result: no binding

B3: GST-LMO4 fusion protein (full-length mouse LMO4 in pGEX-2T) (other, UniProt P61969 1-165, looked up)
chain: MVNPGSSSQPPPVTAGSLSWKRCAGCGGKIADRFLLYAMDSYWHSRCLKCSCCQAQLGDIGTSCYTKSGMILCRNDYIRLFGNSGACSACGQSIPASELVMRAQGNVYHLKCFTCSTCRNRLVPGDRFHYINGSLFCEHDRPTALINGHLNSLQSNPLLPDQKVC
notes: mature; Expressed in bacterial strain UT5600, immobilised on glutathione sepharose; not shown: glutathione-S-transferase as encoded by pGEX-2T; linker to LMO4 not described
[5]
  binding result: binds

B4: endogenous LMO4 of human HBL100 breast epithelial cells (other, UniProt P61968 1-165, looked up)
chain: MVNPGSSSQPPPVTAGSLSWKRCAGCGGKIADRFLLYAMDSYWHSRCLKCSCCQAQLGDIGTSCYTKSGMILCRNDYIRLFGNSGACSACGQSIPASELVMRAQGNVYHLKCFTCSTCRNRLVPGDRFHYINGSLFCEHDRPTALINGHLNSLQSNPLLPDQKVC
notes: mature; also called native LMO4; 17 kD LMO4 protein
[6]
  binding result: binds
[7]
  binding result: binds
